Tests used:
[1] = target: canine MHC Class I DLA-12 antigen (canine (Canis lupus familiaris)); assay: flow cytometry on cells of CLBL-1 xenograft tumours (PBS group) [B]
[2] = target: canine MHC Class I DLA-12 antigen (canine (Canis lupus familiaris)); assay: flow cytometry on canine PBMCs [E]

B1: cLy-m10C5 (antibody, V domains shown)
VH: EVQLQQSGPELVKPGASVKISCKASGYTFTDYNMHWVKQSHGKSLEWIGYIYPYNGGTDYNQKFKSKATLTVDNSSSTAYMELRSLTSDDSTVYYCARGGLVGAMDYWGQGTSVTVSS
VL: DIQMTQSPASLSASVGETVTITCRASGNIHNSLAWYQQKQGKSPQLLVYNAKTLPDGVPSRFSGSGSGTQYSLKINSLQPEDFGSYYCQHFWSIPWTFGGGTKLEIK
[1]
  FL1-H (percent of cells in the positive gate): 89.4%
[2]
  FITC-H subset (percent of cells in the positive gate): 59.4%

B2: cLy-c10C5 (antibody, V domains shown)
VH: B1 VH
VL: B1 VL
[1]
  FITC-A (percent of cells in the positive gate): 98.7%

Source: patent publication US20240132595A1
